From paper PMC8857470, “Molecular insights into the maturation of phosphodiesterase 6 by the specialized chaperone complex of HSP90 with AIPL1” (The Journal of Biological Chemistry, 2022)

Target: full-length human HSP90β (residues 1–724), pET15b construct (human) (UniProt P08238)
Assay: cross-linking + other: mass photometry; DSS (0.5 mM) or glutaraldehyde (0.03%) added to HSP90β (15 μM), AIPL1 (25 μM) or their mixture (HSP90_(AMPPNP)/AIPL1), 15 to 30 min at 25 °C, 25 mM Hepes pH 7.5, 200 mM NaCl, 5% glycerol, 1 mM TCEP; products on 3 to 8% Tris-acetate gel and by mass photometry

Sequence of full-length human HSP90β (residues 1–724), pET15b construct, P08238 1-724 (natural protein; other documents disagree on this pair) (P08238 whole entry, the tested form may be a part): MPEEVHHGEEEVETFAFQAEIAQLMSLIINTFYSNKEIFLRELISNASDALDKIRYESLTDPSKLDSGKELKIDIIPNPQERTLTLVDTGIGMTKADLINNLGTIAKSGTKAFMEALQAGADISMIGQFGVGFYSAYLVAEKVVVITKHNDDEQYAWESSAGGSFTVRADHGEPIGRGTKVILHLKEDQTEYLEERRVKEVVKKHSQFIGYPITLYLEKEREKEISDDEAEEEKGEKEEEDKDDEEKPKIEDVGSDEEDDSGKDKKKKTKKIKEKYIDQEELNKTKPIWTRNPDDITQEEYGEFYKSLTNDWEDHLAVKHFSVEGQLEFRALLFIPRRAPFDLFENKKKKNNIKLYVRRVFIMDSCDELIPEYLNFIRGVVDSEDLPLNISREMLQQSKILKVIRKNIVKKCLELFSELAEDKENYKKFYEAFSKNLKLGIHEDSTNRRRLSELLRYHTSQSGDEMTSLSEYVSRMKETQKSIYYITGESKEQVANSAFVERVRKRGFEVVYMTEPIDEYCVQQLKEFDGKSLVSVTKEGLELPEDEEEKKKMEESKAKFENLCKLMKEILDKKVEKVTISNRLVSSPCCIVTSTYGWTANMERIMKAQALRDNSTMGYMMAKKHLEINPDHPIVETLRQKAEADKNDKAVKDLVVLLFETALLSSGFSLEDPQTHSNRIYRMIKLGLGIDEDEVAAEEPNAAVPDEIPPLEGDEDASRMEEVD

“full-length human HSP90β (residues 1–724), pET15b construct, P08238 1-724 (natural protein; other documents disagree on this pair)” gave a stoichiometry N of 2.
